Earlier results in paper PMC5695669 (Journal of medicinal chemistry, 2012).

How the values were obtained:
rMor (μ opioid receptor) = rMor (μ opioid receptor) (Rattus norvegicus, UniProt P33535); settings: [3H]DAMGO, ±SEM, ref [3]
[1] = system: guinea pig ileum longitudinal muscle-myenteric plexus; settings: read-out: GPI (IC50); functional bioactivity, ±SEM; ref [3]

Sequence of rMor (μ opioid receptor) (P33535 whole entry): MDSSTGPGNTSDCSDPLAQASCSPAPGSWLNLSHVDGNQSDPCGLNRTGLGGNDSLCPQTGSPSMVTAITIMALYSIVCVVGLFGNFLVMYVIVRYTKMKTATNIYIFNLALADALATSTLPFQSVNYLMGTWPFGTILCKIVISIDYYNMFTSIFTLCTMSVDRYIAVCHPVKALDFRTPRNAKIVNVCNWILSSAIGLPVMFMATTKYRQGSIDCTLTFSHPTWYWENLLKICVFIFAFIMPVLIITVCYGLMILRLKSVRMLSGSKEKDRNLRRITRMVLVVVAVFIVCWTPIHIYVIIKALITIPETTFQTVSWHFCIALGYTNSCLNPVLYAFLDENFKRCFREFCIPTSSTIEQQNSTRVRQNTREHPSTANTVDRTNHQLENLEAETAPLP

H-Tyr-Pro-Phe-Phe-NH2 (H-YPFF-NH2) [EM-2]
Ki (rMor (μ opioid receptor)): 9.6 ± 0.98 nM
IC50 [1]: 15 ± 2 nM
